According to patent US20210085785A1 (TRUEBINDING, published 2021):
Changes are numbered by the printed parent chain.

Assays:
[1] = target: T1, Purified human LRIG1 extracellular domain fused to a HIS tag (R&D Systems) (human) (UniProt Q96JA1); assay: biosensor binning; saturating mab5 20 ug/mL, competitor mab4 5 ug/mL
T1 sequence: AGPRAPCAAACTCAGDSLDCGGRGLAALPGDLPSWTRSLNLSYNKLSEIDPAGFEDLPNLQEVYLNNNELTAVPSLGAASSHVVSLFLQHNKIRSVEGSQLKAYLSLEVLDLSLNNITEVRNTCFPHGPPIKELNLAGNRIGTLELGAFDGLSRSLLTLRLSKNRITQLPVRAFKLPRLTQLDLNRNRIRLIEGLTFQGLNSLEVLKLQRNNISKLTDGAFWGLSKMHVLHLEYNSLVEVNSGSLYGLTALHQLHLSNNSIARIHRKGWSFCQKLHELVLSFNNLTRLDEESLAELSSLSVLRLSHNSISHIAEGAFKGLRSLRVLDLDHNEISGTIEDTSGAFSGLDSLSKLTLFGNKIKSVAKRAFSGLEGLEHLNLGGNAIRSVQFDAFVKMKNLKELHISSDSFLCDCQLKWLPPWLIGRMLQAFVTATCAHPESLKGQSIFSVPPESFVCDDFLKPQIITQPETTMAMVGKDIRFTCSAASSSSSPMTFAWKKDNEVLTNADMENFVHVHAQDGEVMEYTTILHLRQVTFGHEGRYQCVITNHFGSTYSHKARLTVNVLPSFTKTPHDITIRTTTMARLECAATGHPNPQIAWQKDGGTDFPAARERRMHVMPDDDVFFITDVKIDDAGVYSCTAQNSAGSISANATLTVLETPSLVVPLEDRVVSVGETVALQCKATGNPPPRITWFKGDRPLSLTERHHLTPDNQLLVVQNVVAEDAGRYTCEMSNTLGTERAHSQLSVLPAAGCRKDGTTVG

[2] = target: T1, Purified human LRIG1 extracellular domain fused to a HIS tag (R&D Systems) (human); assay: biosensor binning; saturating mab5 20 ug/mL, competitor mab5 5 ug/mL
[3] = target: T1, Purified human LRIG1 extracellular domain fused to a HIS tag (R&D Systems) (human); assay: biosensor binning; saturating mab5 20 ug/mL, competitor mab6 5 ug/mL
[4] = target: T1, Purified human LRIG1 extracellular domain fused to a HIS tag (R&D Systems) (human); assay: blocking ELISA: LRIG1 ECD-His coated, antibody 3.3 ug/ml, oligomerized VISTA 50 nM, avidin-HRP
[5] = target: T1, Purified human LRIG1 extracellular domain fused to a HIS tag (R&D Systems) (human); assay: biosensor binning; saturating mab5 20 ug/mL, competitor mab2 5 ug/mL
[6] = target: T2, Purified human LRIG1 extracellular domain fused to a HIS tag (R&D Systems) (human, UniProt Q96JA1 35-794); assay: blocking ELISA: LRIG1 ECD-His coated, antibody 3.3 ug/ml, oligomerized VISTA 50 nM, avidin-HRP
T2 construct: also called human LRIG1-His; hLRIG1-His; not shown: HIS tag
T2 sequence: T1 sequence
Procedure: To identify LRIG1-targeted antibodies with the ability to block the interaction of LRIG1 and VISTA, purified LRIG1 and VISTA proteins were incubated in the presence of various LRIG1-targeted or control antibodies, or without antibody, and protein interaction was evaluated by ELISA. Purified human LRIG1 extracellular domain fused to a HIS tag (R&D Systems) was diluted in phosphate buffered saline (PBS) (Corning) to a concentration of 3 μg/ml and 100 ul was added to each well of a 96-well ELISA plate (Thermo Fisher, 44-2404-21). After incubating the plate at 4° C. overnight, the plate was washed three times with 300 μl of PBS with 0.05% TWEEN (VWR) (PBST) per well. The plate was then blocked for an hour with 200 μl of 2% bovine serum albumin (BSA) (Sigma) in PBST per well at room temperature with gentle rocking. Thereafter, the 2% BSA in PBST was removed and 50 ul of antibody at 3.3 ug/ml in 2% BSA in PBST was added to the wells. The plate was incubated for 10 minutes at room temperature with gentle rocking. Afterwards, 50 nM of oligomerized VISTA in 100 ul PBS buffer was added per well. […] The plate was read using a plate reader (Molecular Devices) at absorbance of 450 nm. Percent blockade of LRIG1-VISTA interaction was calculated as the fraction of signal obtained in each experimental samples of the no antibody sample less background signal.

B1: mab5 (antibody, V domains shown)
VH: QVQLVQSGAEVKKPGASVKVSCKASGYTFTSYYLHWVRQAPGQRLEWMGWIYPGNVNTKYNQKFQGRVTITADKSASTAYMELSSLRSEDTAVYFCAREELGGFAYWGQGTLVTVSS
VL: DIQMTQSPSSLSASVGNRVTITCRASQDISNYLSWYQQKPGKVPKLLIYYTSILHSGVPSRFSGSGSGTDYSLTISSLQPEDVATYFCQQGNTLPRTFGQGTKVEIK
- competition matrix entry (not explained) [1]: 0
- competition matrix entry (not explained) [2]: 0
- competition matrix entry (not explained) [3]: 0
- percent of LRIG1-VISTA binding relative to an unblocked sample [4]: 60%
- competition matrix entry (not explained) [5]: 0

B2: mab4 (IMT300) (antibody, V domains shown)
VH: B1 VH
VL: B1 VL with L11V, V15I, N17D, V43A, S72T, V83F, Q100G
notes: also called hLRIG1 mAb IMT300; Immutics PP14384
- percent of LRIG1-VISTA binding relative to an unblocked sample [6]: 44%

B3: mab6 (antibody, V domains shown)
VH: B1 VH with M48I, Q62E, I70L
VL: B1 VL with L11V, V15I, N17D, V43A, S72T, V83F, Q100G
notes: also called Immutics PP14387
- percent of LRIG1-VISTA binding relative to an unblocked sample [6]: 43%
